Results on 21 sequences are retold here after the DeepSol protein solubility set.

The data set in a line: soluble on expression in E. coli; label from the status in PepcDB or PDB records.
“MTLFEPSTSGNRMGYRGSSNSSSGVGSGGSGSLMTQSIGGPNKHLSASHSTLNTASTHDMMHSKIPKSPSNESLSRSHTSSSGGSQGGHNSNSGSNSGFRPEDAVQTFGAKLVPFEKNEIYNYTRVFFVGSHAKKQAGVIGGANNGGYDDENGSYQLVVHDHIAYRYEVLKVIGKGSFGQVIKAFDHKYQQYVALKLVRNEKRFHRQADEEIRILDHLRRQDSDGTHNIIHMLDYFNFRNHKCITFELLSINLYELIKRNKFQGFSLMLVRKFAYSMLLCLDLLQKNRLIHCDLKPENVLLKQQGRSGIKVIDFGSSCFDDQRIYTYIQSRFYRAPEVILGTKYGMPIDMWSLGCILAELLTGYPLLPGEDENDQLALIIELLGMPPPKSLETAKRARTFITSKGYPRYCTATSMPDGSVVLAGARSKRGKMRGPPASRSWSTALKNMGDELFVDFLKRCLDWDPETRMTPAQALKHKWLRRRLPNPPRDGLESMGGLADHEVCFIIF”: the “soluble on expression in E. coli” value is on record as “not soluble”. The entry for “MTLIEPDMNLRMPDISTTVETLNLISKMEAQKENIRSVIAPEHKHKYKDIENGLKGEEKVLIEQMAQHCEAFKANFKGAAQGDWVKSAMSEIDSIKDDLKKINSLEHHHHHH” is “not soluble”; for “MTLLASLRDWLKAQQLDAVLLSSRQNKQPHLGISTGSGYVVISRESAHILVDSRYYVEVEARAQGYQLHLLDATNTLTTIVNQIIADEQLQTLGFEGQQVSWETAHRWQSELNAKLVSATPDVLRQIKTPEEVEKIRLACGIADRGAEHIRRFIQAGMSEREIAAELEWFMRQQGAEKASFDTIVASGWRGALPHGKASDKIVAAGEFVTLDFGALYQGYCSDMTRTLLVNGEGVSAESHLLFNVYQIVLQAQLAAISAIRPGVRCQQVDDAARRVITEAGYGDYFGHNTGHAIGIEVHEDPRFSPRDTTTLQPGMLLTVEPGIYLPGQGGVRIEDVVLVTPQGAEVLYAMPKTVLLTGEA” it is “soluble”. As for “MTLLGTALRPAATRVMLLGSGELGKEVAIECQRLGVEVIAVDRYADAPAMHVAHRSHVINMLDGDALRRVVELEKPHYIVPEIEAIATDMLIQLEEEGLNVVPCARATKLTMNREGIRRLAAEELQLPTSTYRFADSESLFREAVADIGYPCIVKPVMSSSGKGQTFIRSAEQLAQAWKYAQQGGRAGAGRVIVEGVVKFDFEITLLTVSAVDGVHFCAPVGHRQEDGDYRESWQPQQMSPLALERAQEIARKVVLALGGYGLFGVELFVCGDEVIFSEVSPRPHDTGMVTLISQDLSEFALHVRAFLGLPVGGIRQYGPAASAVILPQLTSQNVTFDNVQNAVGADLQIRLFGKPEIDGSRRLGVALATAESVVDAIERAKHAAGQVKVQG”, the entry is “soluble”; as for “MTMPLRGLGPPDDTGVREVSTGDDHHYAMWDAAYVLGALSAADRREFEAHLAGCPECRGAVTELCGVPALLSQLDRDEVAAISESAPTVVASGLSPELLPSLLAAVHR”, “soluble”; as for “MTMSLEVFEKLEAKVQQAIDTITLLQMEIEELKEKNNSLSQEVQNAQHQREELERENNHLKEQQNGWQERLQALLGRMEEV”, “soluble”.

“MTMTQQIKAVVYDFGGVLLSYEGVMEKWVAMSRSLGLPDDAVHSESVGIEFSQWLGPDRSLFLGTLTVDDLEGGLFLQYLKHKYGNKLTDNVVIKPFTECLRGENVKIHKNMQKTVEILHKKGFKTAMLTNNMFLDKEHKETRLPCDLTHFDEVVESCLEHLMKPDARFYHLVEKRLGVKPEEIVFLDDLHENIEAAEKLGWNTILVEDIEKAIHELEGFTKVKLI”: the “soluble on expression in E. coli” value was “not soluble”. The entry for “MTNLKAVIPVAGLGMHMLPATKAIPKEMLPIVDKPMIQYIVDEIVAAGIKEILLVTHASKNAVENHFDTSYELESLLEQRVKRQLLAEVQSICPPGVTIMNVRQGEPLGLGHSILCARPAIGDNPFVVVLPDVVIDDASADPLRYNLAAMIARFNETGRSQVLAKRMPGDLSEYSVIQTKEPLDREGKVSRIVEFIEKPDQPQTLDSDIMAVGRYVLSADIWPELERTQPGAWGRIQLTDAIAELAKKQSVDAMLMTGDSYDCGKKMGYMQAFVKYGLRNLKEGAKFRKGIEKLLSE” is “not soluble”. The entry for “MTNNAVLQLRAERLARATRPFLARGNRVRRCQRCLLPLKSCLCDTLTPSQAKSRFCLVMFDTEPMKPSNTGRLIADILPDTAAFQWSRTEPPQALLELVQHPDYQPIVVFPASYAGEAREVISTPPAGKPPLFIMLDGTWPEARKMFRKSPYLDHLPVISVDLSRLSAYRLREIHAEGQYCTAEVAIALLDLAGDTEAATSLGEHFTRFKTRYLAGKTQHPGNVTALEHHHHHH” is “soluble”; for “MTNYVKKVSIEDFGCQFLHTAHWNNRLRTTGGRFFPNDRHLDFNPKIYREFGIDIFRKIVRHELCHYHLYIQGKGYQHRDKAFKELLEKVDGLRYTPRVTAVKVNYHHYSCQSCGQVYRRRRRVNLRKFACGYCHGRLIESFLEHHHHHH” it is “not soluble”.

In the case of “MTPFTVDILIPIWNRPVETRNCLVTLMETTPSARLILIDNGSDRETERLLEEFSEILGERALFLKTSANQGFVRAVNRSLAQVEAPYAVVMQNTTLVTRGWLEPMVELADSRPDAGIIVPRLELEDGQGRRPKAAPPAGPVTEVSHGSFAASMVRRELVERQGGFDEELDGGPWCLRDYSRRAFRNGFLTLALDGAVVTYAEEVPLGSVARREETVRRSAETCRARWGREDAFCIYFPKDAEPEAVHGKLDVILRGARMGQCFTLILHPGLHKSLMETGHAPLHSNIALAPLPRFFATGEIRKIIGKLASVRGDTVTVAGVDGLSIPGVEGARSFSWLADEIRRRHESLYRPESP”, the “soluble on expression in E. coli” value is reported as “soluble”.

“MTPILTDRPALARHRTRACRAPALFLHEEAAREVEERLSEVNRRFTAPAVVTAFPEVWRDRLPNARIVTDAEELALDPGAHDLVIHALAMHWSNDPVGQLVQSRRALRPDGLFLGLLFGGRTLSELRIALAEAEAAVTGGLSPRVLPMAEIRDLGALLQRAGFALPVADSLVREVRYRDTLHLMRDLRAMGETNALEARLRRPSRRALFAEAEARYPRRADDRIVASFEIICLTGWAPHESQQKPLRPGSAARSLAEALAAARKDGPGDG”: the “soluble on expression in E. coli” value is on record as “not soluble”. The entry for “MTPKEIFESNRPGSKDVAWCPGCGNFGIRNILIEAFSELNLKPTEVVIISGIGQAAKMPHYINVNGYHTLHGRAIPIATAVKAANPSLTVIAEGGDGDMYAEGGNHLLHAIRRNPDITVLIHNNQIYGLTKGQASPTTPIGMKTPTQPWGVFEEPLNPIALAIALGASFVARTFVGYFKESVEIIKQAIKHKGLAIVDIFQPCVSFNKLNTYSWYKEHTYWMKDHDPHDRIEAFKRAIETDPLPLGIFYINEKPTFEEQVPAYKRDKRPLWMRDPKIELVKKFFESKR” is “not soluble”. As for “MTPPEIDFFPDFIADPHRLFNHLKDSVLWDERMRARKTASFGAPYDYSQITYPAVPMPEALEQLCGPIEQLLGFRPNNCLLNCYPDGHSSMGFHSDANEQLVTGTGVVIVSLGHARAMVFRHKESGATFDYSLASGSLLHMSDELQKHWLHAIPKAPDAGERISLSFRQLKTGLEHHHHHH”, the entry is “soluble”. As for “MTPTHPTVTELLLPLSEIDDRGVYFEDSFTSWRDHIRHGAAIAAALRERLDPARPPHVGVLLQNTPFFSATLVAGALSGIVPVGLNPVRRGAALAGDIAKADCQLVLTGSGSAEVPADVEHINVDSPEWTDEVAAHRDTEVRFRSADLADLFMLIFTSGTSGDPKAVKCSHRKVAIAGVTITQRFSLGRDDVCYVSMPLFHSNAVLVGWAVAAACQGSMALRRKFSASQFLADVRRYGATYANYVGKPLSYVLATPELPDDADNPLRAVYGNEGVPGDIDRFGRRFGCVVMDGFGSTEGGVAITRTLDTPAGALGPLPGGIQIVDPDTGEPCPTGVVGELVNTAGPGGFEGYYNDEAAEAERMAGGVYHSGDLAYRDDAGYAYFAGRLGDWMRVDGENLGTAPIERVLMRYPDATEVAVYPVPDPVVGDQVMAALVLAPGTKFDADKFRAFLTEQPDLGHKQWPSYVRVSAGLPRTMTFKVIKRQLSAEGVACADPVWPIRR”, the entry is “soluble”. Turning to “MTQAILALSQIEKAFPGVKALDKASLNVYPGRVMALMGENGAGKSTLMKVLTGIYSKDAGSIEYQGQPVSFKGPRDSQLAGISIIHQELNLIPQLTIAENIFLGREMTSPFGRILWDEMHRKADQLLARLNVKHSAKTLLGELSLGEQQMVEIAKALSFESKVIIMDEPTDALTDTETESLFNVINELREQGCGIVYISHRLKEIFEICDDITVLRDGKFIGECRVCDTNEDGLIEMMVGRKLEEQYPRIAAQQGDISLEVIGLTGSGVHDVSFTLKKGEILGVSGLMGAGRTELMKVIYGALPSERGVINLNGRTVNPVSPQDGLANGIAYISEDRKGDGLVLGLSVKENMSLCALDQLSKGVQIRHADEVIAVDDFIRLFNIKTPSREQIIGNLSGGNQQKVAIAKGLMTKPKVLILDEPTRGVDVGAKKEIYQLINQFKAEGMSIILVSSEMPEVLGMSDRILVMHEGRISGEFMASEADQEKLMACAVGRNPAHAA”, the “soluble on expression in E. coli” value is on record as “not soluble”.

With “MTQCYAEITGWGKCLPPATLSNHDLSTFLDTSDEWIQSRTGIEQRRISHVNTSDLATVAAQHAIACAGVSVEEIDLIIVATCSPDSLIPNIASRVQQNLGIPSAAAFDLNAACTGFLYGLETATRLMQASHYRHALVIGAERLSFYLDWTKRDTAVLFGDGAGAVVLSKTEQKVGLQDAQIGCDAQGRDILAVPKFGTAMDRFDADNGYWAFDFVGKEIFKRAVRGMGAAAQQVLARSGLSTEEIDVVIPHQANIRIIQTLCDLAGIAQDKAFVNIHRYGNTSAATVPIALCEALEQGKIKPHDDLLVAAFGAGLTWGAGHIRWGERITPLGKSDAQLPSCDHTALDLLSKAIEHCKRHQSE”, the “soluble on expression in E. coli” value was “not soluble”. As for “MTQLCSDVRVSPLPGTAKVGDTYILFEHHGPWSHDILDGGTFDKETSAALKAMGCGFYLIRRHGREGRIERPKKTAYLVFGSAGIAEKLMVDDVTDLLKLDVSGPGKNRQFGAEQEAQPIILVCTHAKRDACCAIKGRPMAQALTEEFPDSPVWECSHTKGHRFAPSMVLMPWGYTWGQLNKPAAFDMYRYAQRGQLFLPGNRGRGIWPMKGQIAEVAVAQQLAQEGETVTLGQLRVESIEEAQAHVADSHTARTWTVFLREEVVAGIVDSCHKPPKTGTAWVADRVKENGA”, the entry is “not soluble”; as for “MTQMNFTDRATRVAIIANGKYQSKRVASKLFAAFKHDPDFYLSKKDPDIVISIGGDGMLLSAFHMYEKQLDKVRFVGVHTGHLGFYTDYRDFEVDTLINNLKNDKGEQISYPILKVTITLEDGRVIRARALNESTIKRIEKTMVADVVINQVVFERFRGDGILVSTPTGSTAYNKSLGGAVLHPTIEALQLTEISSLNNRVYRTLGSSVIIPKKDAIEIVPKRVGVYTISIDNKTVHYKNVTKIEYSIDEKSINFVSTPSHTSFWERVNDAFIGEPEHLEHHHHHH”, “not soluble”. “MTQTNNPLHGITLETIITQLVEHYGWEELGARIKIRCFTEAPSIKSSLRFLRKTDWAREKVEYLYLKTNKLPLPAAKSIQAPAKEPSKKSAPKPNSKPTQTKVVTPTPAVEGQVNSHIWGKRDLEHHHHHH”: the “soluble on expression in E. coli” value is listed as “soluble”.

Consider “MTRGLDYYEVMGLTRSANDIDIRRAYRRLALKYHPDINKDGAAGDEFLRICEAYEVLCDPKTKGFYDLYGEDALKDGISDGNGGLKGPMYRFNPEESPKAVFERFFGTANPYEALEALSNQFESMTSEEAPARGKNKVYPLELTLEEIFHGCLKKVAHKRKVLLFSGEYVEEERQLTVDVKPGLPTGTRFVFEGEGNKTPKKEPGPVVFVLKPKPHPRFVRRGSDLVHKVTLPLHHALIGTTLDIRTLDDRDLKVPISDIMRPGSSLTVPGEGMPLPATPSARGNLVIEIDLLFPTHLTETQKMLLRSAFF”, for which the “soluble on expression in E. coli” value is given as “soluble”.
